Target: T1, Ac-DEVD-CHO
T1 chain: DEVD

B1: recombinant, purified active CASP10 (protein)
chain: VKTFLEALPQESWQNKHAGSNGNRATNGAPSLVSRGMQGASANTLNSETSTKRAAVYRMNRNHRGLCVIVNNHSFTSLKDRQGTHKDAEILSHVFQWLGFTVHIHNNVTKVEMEMVLQKQKCNPAHADGDCFVFCILTHGRFGAVYSSDEALIPIREIMSHFTALQCPRLAEKPKLFFIQACQGEEIQPSVSIEADALNPEQAPTSLQDSIPAEADFLLGLATVPGYVSFRHVEEGSWYIQSLCNHLKKLVPRMLKFLEKTMEIRGRKRTVWGAKQISATSLPTAISAQTPRPPMRRWSSVS
- activity of recombinant, purified active CASP10 (500 nM; fluorometric AEVD-AMC substrate in MDA-MB-231 lysate): DEVD-CHO ... (20 µM) inhibited the activity of CASP10

Source: patent US20200292555
